± gives the uncertainty stated by the source.
assay: abundance fitness (aPCA) (normalised: wild type 0, dead -1); higher = more abundant; growth selection in yeast, the domain comes from the species named; details: Homo sapiens

Row | Substance | abundance fitness
1 | Transcription factor SOX-4 A121T, Q06945 | -0.009 ± 0.06
2 | Transcription factor SOX-4 D102T, Q06945 | -0.149 ± 0.05
3 | Transcription factor SOX-4 D125N, Q06945 | -0.045 ± 0.22
4 | Transcription factor SOX-4 E79V, Q06945 | -0.476 ± 0.13
5 | Transcription factor SOX-4 E88V, Q06945 | -0.649 ± 0.066
6 | Transcription factor SOX-4 I72D, Q06945 | -0.595 ± 0.46
7 | Transcription factor SOX-4 I77L, Q06945 | -0.126 ± 0.055
8 | Transcription factor SOX-4 I89L, Q06945 | -0.098 ± 0.036
9 | Transcription factor SOX-4 I106R, Q06945 | -0.209 ± 0.042
10 | Transcription factor SOX-4 K60R, Q06945 | -0.294 ± 0.066
11 | Transcription factor SOX-4 K95Q, Q06945 | 0.115 ± 0.14
12 | Transcription factor SOX-4 K101T, Q06945 | -0.029 ± 0.065
13 | Transcription factor SOX-4 L99A, Q06945 | 0.041 ± 0.062
14 | Transcription factor SOX-4 M78A, Q06945 | -0.006 ± 0.058
15 | Transcription factor SOX-4 M84L, Q06945 | 0.014 ± 0.055
16 | Transcription factor SOX-4 M120L, Q06945 | -0.047 ± 0.082
17 | Transcription factor SOX-4 R75K, Q06945 | 0.07 ± 0.046
18 | Transcription factor SOX-4 R92M, Q06945 | 0.128 ± 0.11
19 | Transcription factor SOX-4 R96S, Q06945 | -0.162 ± 0.17
20 | Transcription factor SOX-4 S70A, Q06945 | 0.014 ± 0.057
21 | Transcription factor SOX-4 S81N, Q06945 | 0.007 ± 0.056
22 | Transcription factor SOX-4 S103L, Q06945 | -0.454 ± 0.082
23 | Transcription factor SOX-4 Y123H, Q06945 | -0.03 ± 0.12

same assay, conditions: Saccharomyces cerevisiae (strain ATCC 204508 / S288c)

Row | Substance | abundance fitness
24 | E3 ubiquitin-protein ligase RSP5 V360D, P39940 | -0.098 ± 0.056
25 | E3 ubiquitin-protein ligase RSP5 V360E, P39940 | -0.154 ± 0.053
26 | E3 ubiquitin-protein ligase RSP5 V360F, P39940 | 0.058 ± 0.11
27 | E3 ubiquitin-protein ligase RSP5 V360H, P39940 | 0.043 ± 0.059
28 | E3 ubiquitin-protein ligase RSP5 V360I, P39940 | 0.186 ± 0.1
29 | E3 ubiquitin-protein ligase RSP5 V360L, P39940 | -0.03 ± 0.044
30 | E3 ubiquitin-protein ligase RSP5 V360M, P39940 | 0.022 ± 0.062
31 | E3 ubiquitin-protein ligase RSP5 V360N, P39940 | 0.014 ± 0.093
32 | E3 ubiquitin-protein ligase RSP5 V360P, P39940 | -0.871 ± 0.061
33 | E3 ubiquitin-protein ligase RSP5 V360Q, P39940 | -0.184 ± 0.15
34 | E3 ubiquitin-protein ligase RSP5 V360R, P39940 | -0.207 ± 0.041
35 | E3 ubiquitin-protein ligase RSP5 V360T, P39940 | -0.095 ± 0.064
36 | E3 ubiquitin-protein ligase RSP5 V360W, P39940 | -0.06 ± 0.069
37 | E3 ubiquitin-protein ligase RSP5 V360Y, P39940 | 0.194 ± 0.084
38 | E3 ubiquitin-protein ligase RSP5 W337A, P39940 | -0.649 ± 0.06
39 | E3 ubiquitin-protein ligase RSP5 W337C, P39940 | -0.4 ± 0.087
40 | E3 ubiquitin-protein ligase RSP5 W337D, P39940 | -0.504 ± 0.074
41 | E3 ubiquitin-protein ligase RSP5 W337E, P39940 | -0.525 ± 0.066
42 | E3 ubiquitin-protein ligase RSP5 W337F, P39940 | -0.045 ± 0.093
43 | E3 ubiquitin-protein ligase RSP5 W337G, P39940 | -0.503 ± 0.051
44 | E3 ubiquitin-protein ligase RSP5 W337H, P39940 | -0.539 ± 0.076

Row | Substance | abundance fitness
45 | E3 ubiquitin-protein ligase RSP5 W337I, P39940 | -0.23 ± 0.085
46 | E3 ubiquitin-protein ligase RSP5 W337K, P39940 | -0.713 ± 0.073
47 | E3 ubiquitin-protein ligase RSP5 W337L, P39940 | -0.53 ± 0.06
48 | E3 ubiquitin-protein ligase RSP5 W337N, P39940 | -0.641 ± 0.14
49 | E3 ubiquitin-protein ligase RSP5 W337P, P39940 | -0.883 ± 0.061
50 | E3 ubiquitin-protein ligase RSP5 W337Q, P39940 | -0.637 ± 0.11
51 | E3 ubiquitin-protein ligase RSP5 W337R, P39940 | -0.771 ± 0.052
52 | E3 ubiquitin-protein ligase RSP5 W337S, P39940 | -0.622 ± 0.052
53 | E3 ubiquitin-protein ligase RSP5 W337Y, P39940 | -0.366 ± 0.1
54 | E3 ubiquitin-protein ligase RSP5 W359C, P39940 | -0.336 ± 0.085
55 | E3 ubiquitin-protein ligase RSP5 W359D, P39940 | -0.225 ± 0.059
56 | E3 ubiquitin-protein ligase RSP5 W359E, P39940 | -0.271 ± 0.071
57 | E3 ubiquitin-protein ligase RSP5 W359G, P39940 | -0.441 ± 0.045
58 | E3 ubiquitin-protein ligase RSP5 W359I, P39940 | -0.258 ± 0.1
59 | E3 ubiquitin-protein ligase RSP5 W359K, P39940 | -0.446 ± 0.11
60 | E3 ubiquitin-protein ligase RSP5 W359L, P39940 | -0.203 ± 0.066
61 | E3 ubiquitin-protein ligase RSP5 W359N, P39940 | -0.198 ± 0.091
62 | E3 ubiquitin-protein ligase RSP5 W359P, P39940 | -0.447 ± 0.059
63 | E3 ubiquitin-protein ligase RSP5 W359Q, P39940 | -0.278 ± 0.08
64 | E3 ubiquitin-protein ligase RSP5 W359R, P39940 | -0.265 ± 0.067
65 | E3 ubiquitin-protein ligase RSP5 W359S, P39940 | -0.249 ± 0.049

Row | Substance | abundance fitness
66 | E3 ubiquitin-protein ligase RSP5 W359T, P39940 | -0.342 ± 0.055
67 | E3 ubiquitin-protein ligase RSP5 W359V, P39940 | -0.416 ± 0.045
68 | E3 ubiquitin-protein ligase RSP5 W359Y, P39940 | 0.171 ± 0.08
69 | E3 ubiquitin-protein ligase RSP5 Y348A, P39940 | -0.936 ± 0.073
70 | E3 ubiquitin-protein ligase RSP5 Y348C, P39940 | -0.574 ± 0.09
71 | E3 ubiquitin-protein ligase RSP5 Y348D, P39940 | -0.879 ± 0.091
72 | E3 ubiquitin-protein ligase RSP5 Y348E, P39940 | -0.664 ± 0.062
73 | E3 ubiquitin-protein ligase RSP5 Y348F, P39940 | -0.146 ± 0.09
74 | E3 ubiquitin-protein ligase RSP5 Y348G, P39940 | -0.796 ± 0.043
75 | E3 ubiquitin-protein ligase RSP5 Y348H, P39940 | -0.699 ± 0.16
76 | E3 ubiquitin-protein ligase RSP5 Y348K, P39940 | -0.666 ± 0.072
77 | E3 ubiquitin-protein ligase RSP5 Y348L, P39940 | -0.504 ± 0.068
78 | E3 ubiquitin-protein ligase RSP5 Y348M, P39940 | -0.354 ± 0.092
79 | E3 ubiquitin-protein ligase RSP5 Y348P, P39940 | -1.17 ± 0.086
80 | E3 ubiquitin-protein ligase RSP5 Y348Q, P39940 | -0.637 ± 0.054
81 | E3 ubiquitin-protein ligase RSP5 Y348R, P39940 | -0.919 ± 0.049
82 | E3 ubiquitin-protein ligase RSP5 Y348S, P39940 | -0.738 ± 0.077
83 | E3 ubiquitin-protein ligase RSP5 Y348T, P39940 | -0.686 ± 0.087
84 | E3 ubiquitin-protein ligase RSP5 Y348V, P39940 | -0.585 ± 0.048
85 | E3 ubiquitin-protein ligase RSP5 Y348W, P39940 | -0.147 ± 0.049
